Assay: Poly(ADP-ribose) polymerase activity assay (32P-NAD+, SDS-PAGE, autoradiography)
Assay type: biochemical
Details: 250 ng protein, 10 min at room temperature, 2.5 μM unlabeled NAD+
Protocol: For poly(ADP-ribose) polymerase activity assays, reagents were obtained from Sigma unless otherwise indicated. PARP1A/TANK2B (250 ng) protein was incubated for 10 min at room temperature in Assay buffer (total volume of 20 μL) [100 mM Tris-HCl, pH 8.0, 10 mM MgCl2, 10% glycerol, 1.5 mM DTT (Boehringer Mannheim/Roche Molecular Biochemicals), 2.5 μM unlabeled NAD^+, 16.7 μg/mL E. coli Strain B DNA, and 0.33 μCi γ-[^32P]-NAD^+ (NEN, Boston, Mass.). Reactions were stopped by boiling in SDS running buffer and separated by SDS-polyacrylamide gel electrophoresis (SDS-PAGE). Autoradiography was used to visualize labeled protein. Addition of poly(ADP-ribose) polymers to protein substrate results in an increase in molecular weight of the protein, and consequently causes the protein to run higher on SDS PAGE. Also, the level of poly(ADP-ribose) polymers added to the protein substrate can vary with each single protein molecule, resulting in labeled proteins with different molecular weights, which appears on the autoradiography film as a ladder or smear [for example, see Smith et al. Science 282:2484-7 (1998)]. […] The PARP1A/TANK2B poly(ADP-ribose) polymerase reaction produced a ladder of labeled protein from approximately 136 kDa to 250 kDa.

PARP1A/TANK2B: Fusion protein containing aa 1-662 of PARP1 fused upstream of aa 996-1385 of TANK2 (SEQ ID NO:178)
intrinsic poly(ADP-ribose) polymerase activity: possessed intrinsic poly(ADP-ribose) polymerase activity

Reference: patent US20030190739A1, “Tankyrase2 materials and methods” (priority 1999, published 2003)
